Positions count from the first letter of the chain named. Where two headings read alike, the source gives them in different places.

The text below walks through data of patent US20120251547A1 (Amgen, published 2012).

Experiment [1] addresses T1, huIL-17RA-FLAG-polyHis (human, UniProt Q96F46 33-320).
T1 construct: also called IL-17RA-FLAG-pHis; wild-type IL-17RA
Put plainly: binning; IL-17RA held by bead mAb O.

For experiment [2], the target named is T1, huIL-17RA-FLAG-polyHis. The experiment is described as follows: binning; IL-17RA held by bead mAb A.
The target in experiment [3] is T1, huIL-17RA-FLAG-polyHis. The experiment is described as follows: binning; IL-17RA held by bead mAb Q.
The target in experiment [4] is T1, huIL-17RA-FLAG-polyHis. Put plainly: binning; IL-17RA held by bead mAb B.
Experiment [5] addresses T1, huIL-17RA-FLAG-polyHis. Put plainly: binning; IL-17RA held by bead mAb L.
Experiment [6] concerns the target T1, huIL-17RA-FLAG-polyHis. The experiment is described as follows: binning; IL-17RA held by bead mAb F.
Experiment [7] concerns the target T1, huIL-17RA-FLAG-polyHis. Put plainly: binning; IL-17RA held by bead mAb N.
Experiment [8] has as its target T2, cynomolgus IL-17RA, on cells (cynomolgus).
T2 construct: whole, on cells; also called CHO-cynoIL-17RA; cyno IL-17RA+ CHO cells
The experiment is described as follows: FACS competition: non-clonal supernatant inhibiting biotin-huIL-17A (competitor) binding to cyno IL-17RA+ CHO cells.

In experiment [9] the target is T1, huIL-17RA-FLAG-polyHis. The experiment is described as follows: binning; IL-17RA held by bead mAb M.
In experiment [10] the target is T3, human IL-17RA, full-length, on cells (human, UniProt Q96F46 33-866). The experiment is described as follows: cell-based or functional assay.
Experiment [11] deals with T1, huIL-17RA-FLAG-polyHis. The experiment is described as follows: binning; IL-17RA held by bead mAb E.
Experiment [12] deals with T1, huIL-17RA-FLAG-polyHis. The experiment is described as follows: binning; IL-17RA held by bead mAb R.
The target in experiment [13] is T1, huIL-17RA-FLAG-polyHis. Put plainly: binning; IL-17RA held by bead mAb P.
Experiment [14] has as its target T1, huIL-17RA-FLAG-polyHis. The experiment is described as follows: binning; IL-17RA held by bead mAb H.
Experiment [15] has as its target T1, huIL-17RA-FLAG-polyHis. Put plainly: binning; IL-17RA held by bead mAb G.
For experiment [16], the target named is human IL-17RA (form used in the low resolution BIAcore not stated) (human, UniProt Q96F46 33-320, limits assumed). The experiment is described as follows: low resolution BIAcore, subcloned hybridoma. In general terms: In SPR one partner is held on a chip, and binding of the other changes the refractive index at the surface.
The target in experiment [17] is T1, huIL-17RA-FLAG-polyHis. Put plainly: binning; IL-17RA held by bead mAb I.
The target in experiment [18] is T1, huIL-17RA-FLAG-polyHis. Put plainly: binning; IL-17RA held by bead mAb J.
Experiment [19] has as its target T1, huIL-17RA-FLAG-polyHis. The experiment is described as follows: binning; IL-17RA held by bead mAb K.
For experiment [20], the target named is T1, huIL-17RA-FLAG-polyHis. Put plainly: binning; IL-17RA held by bead mAb C.
In experiment [21] the target is T3, human IL-17RA, full-length, on cells. Put plainly: cell-based or functional assay. This is another data set of the same source.
The target in experiment [22] is T1, huIL-17RA-FLAG-polyHis. Put plainly: binning; IL-17RA held by bead mAb D.
Experiment [23] deals with T2, cynomolgus IL-17RA, on cells. Put plainly: cell-based or functional assay.
Experiment [24] shares this target. Put plainly: FACS competition: non-clonal supernatant inhibiting biotin-huIL-17A (competitor) binding to cyno IL-17RA+ CHO cells. The source holds these as a separate data set.
For a further experiment, the target named is T4, chimera D.
T4 construct: human IL-17RA extracellular domain with mouse Domain D; column head 176-197; also called Construct D
T4 IL-17RA extracellular domain with FLAG-polyHis tag: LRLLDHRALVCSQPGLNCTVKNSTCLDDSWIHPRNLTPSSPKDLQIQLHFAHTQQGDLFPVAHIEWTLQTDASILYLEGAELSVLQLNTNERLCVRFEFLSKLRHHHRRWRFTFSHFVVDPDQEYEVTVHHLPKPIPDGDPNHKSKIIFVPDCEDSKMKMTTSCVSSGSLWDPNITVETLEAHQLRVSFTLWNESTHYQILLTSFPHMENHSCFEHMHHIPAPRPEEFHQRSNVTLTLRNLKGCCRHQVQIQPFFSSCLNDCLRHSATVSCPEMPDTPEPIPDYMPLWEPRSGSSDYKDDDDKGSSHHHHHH
Put plainly: Bio-Plex titration on His-captured chimera.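 Also: binding of anti-IL-17RA antibodies (4-fold titration across about 5 logs, 1 h) to His-captured IL-17RA chimeras on multiplexed beads, MFI read as percent of maximal wild-type human IL-17RA signal.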

A further experiment deals with T5, chimera J.
T5 construct: human IL-17RA extracellular domain with mouse Domains D and E; column head D+E; also called Construct J
Put plainly: Bio-Plex titration on His-captured chimera.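 Also: binding of anti-IL-17RA antibodies (4-fold titration across about 5 logs, 1 h) to His-captured IL-17RA chimeras on multiplexed beads, MFI read as percent of maximal wild-type human IL-17RA signal.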

B1: AMH16/AML16 (antibody, IgG2, V domains shown)
VH: QVQLVQSGAEVKKPGASVKVSCKASGYTFTSYGISWVRQAPGQGLEWMGWISAYNGNTKYAQKLQGRVTMTTDTSTSTVYMELRSLRSDDTAVYYCARKQLVFDYWGQGTLVTVSS
VL: EIVMTQSPATLSVSPGERATLSCRASQSISTSLAWYQQKPGQAPRLLIYGTSTRATGIPARFSGSGSGTEFTLTISSLQSEDFAVYFCQQYDIWPLTFGGGTKVEIK
notes: human mAb from IgG2 XenoMouse mice; also called AM-16; antibody O
In the case of B1, the “normalized MFI” value is 139 in the experiment with huIL-17RA-FLAG-polyHis [1]; 3000 in the experiment with huIL-17RA-FLAG-polyHis [2]; 135 with huIL-17RA-FLAG-polyHis [3]; 630 with huIL-17RA-FLAG-polyHis [4]; 18 in the experiment with huIL-17RA-FLAG-polyHis [5]; 2220 with huIL-17RA-FLAG-polyHis [6]. In addition, the “normalized MFI” value was found to be 83 with huIL-17RA-FLAG-polyHis [7]; 73 with huIL-17RA-FLAG-polyHis [9]; 1260 with huIL-17RA-FLAG-polyHis [11]; 76 in the experiment with huIL-17RA-FLAG-polyHis [12]; 2540 with huIL-17RA-FLAG-polyHis [13]; 120 with huIL-17RA-FLAG-polyHis [14]. For the same molecule, the “normalized MFI” value in the experiment with huIL-17RA-FLAG-polyHis [15] was 4490; with huIL-17RA-FLAG-polyHis [17], 10; in the experiment with huIL-17RA-FLAG-polyHis [18] it was 59; with huIL-17RA-FLAG-polyHis [19], -111; with huIL-17RA-FLAG-polyHis [20], 4510; with huIL-17RA-FLAG-polyHis [22], 1370. In experiment [8], this molecule displayed an MFI of 6. In [10], the “% inhibition of IL-6 Production, IL-17A/HFF bioassay, non-clonal supernatant 1:4” value was 86%. Besides, in experiment [10], the “% inhibition of IL-6 Production, IL-17A/HFF bioassay, non-clonal supernatant 1:32” value was found to be 90%. In addition, the “% inhibition of IL-6 Production, IL-17A/HFF bioassay, non-clonal supernatant 1:128” value in experiment [10] was 71%. Also, the Kd (commonly a measure of binding affinity in units of concentration) in experiment [16] was 6.2 nM. The “IL-17A/HFF bioassay IC50, subclone 24” value in experiment [21] was 1.6 nM. The “IL-17A/HFF bioassay IC50, subclone 25” value in experiment [21] came out at 2.3 nM. Moreover, in experiment [21], the “IL-17A/HFF bioassay IC50, subclone 26” value stood at 1.4 nM.

B2: AMH14/AML14 (antibody, V domains shown)
VH: B1 VH with S31R, A53T, N55S, K59N, V79A, K99R, V102Y
VL: EIVMTQSPATLSVSPGERATLSCRASQSVSSNLAWFQQKPGQAPRPLIYDASTRATGVPARFSGSGSGTDFTLTISSLQSEDFAVYYCQQYDNWPLTFGGGTKVEIK
notes: human mAb from IgG2 XenoMouse mice; also called AM-14; antibody K
As to B2, the “cynomolgous IL-17A-induced IL-6 production from JTC-12 cells, IC50” value in experiment [23] is around 1.2 nM. The same molecule displayed an MFI in experiment [24] of 10.

B3: AMH15/AML15 (antibody, IgG2, V domains shown)
VH: QVQLVESGGGVVQPGRSLRLSCAASGFTFSSYGMQWVRQAPGKGLEWVAVIWYDGNKKYYADSVKGRFTISRDNSKNTLYLQMNSLRAEDTAVYYCARGRVRDYYYGMDVWGQGTTVTVSS
VL: B2 VL with A19V, T56A, V58I
notes: human mAb from IgG2 XenoMouse mice; tested only as part of a non-clonal hybridoma supernatant; also called AM-15
Molecule B3 displayed an MFI in experiment [24] of 6.

B4: AMH26/AML26 (antibody, IgG2, V domains shown)
VH: QVQLVESGGGLVKPGGSLRLSCAASGFTFSDYYMSWIRQAPGKGLEWVSYISSSGSTIYYADSVKGRFTISRDNAKNSLYLQMNSLRAEDTAVYYCARDRTYYFGSGSYEGMDVWGQGTTVTVSS
VL: EILMTQSPATLSVSPGERATLSCRASQSVYSNLAWYQQKPGQAPRLLISGASTRATGIPARFSGSGSGTEFTLTISSLQSEDFAVYYCQQYYNWPWTFGQGTKVEIK
notes: human mAb from IgG2 XenoMouse mice; also called AM-26; antibody P
In the case of B4, the EC50 (usually the concentration that produces a half-maximal response) was 0.145 nM with chimera D and 0.234 nM in the experiment with chimera J.
